According to publication PMC10861901:

Biological target: A. fulgidus DsrC-trisulfide (Archaeoglobus fulgidus)
Assay: SPR

## DsrMKJOP complex of Archaeoglobus fulgidus (from UniProt O29749 1-332; O29748 1-555; O29747 1-142; O29751 27-269; O29750 1-395)
  Kd: 200 nM
